Legend:
[1] = test system: CCC4 osteoblast cell line, serum response element (SRE) luciferase; test: SRE-luciferase assay in CCC4 osteoblast cell line; type: cell-based, mice; settings: 1000 ng/ml zsig37, four hours
Protocol: Zsig37 polypeptides were assayed in a high throughput, in vitro assay to identify substances that selectively activate cellular responses in immortalized osteoblast cell lines. A mature osteoblast cell line derived from p53−/− (deficient) mice, CCC4, that is transfected with a plasmid containing an inducible serum response element (SRE) driving the expression of luciferase was used in the assay. These cells also express endogenous PTH, PDGF and bFGF receptors.
CCC4 lines were trypsinized and adjusted to 5×10^4 cells/ml in plating medium (alpha-MEM, 1% heat inactivated fetal bovine serum, 1 mM Na pyruvate and 2 mM L-glutamate) and plated (200 μl/well) into Dynatech Microlite opaque white microtiter plates (Dynatech, Chantilly, Va.) and incubated overnight at 37° C., 5% CO2. The growth medium was then aspirated and replaced with 50 μl/well assay medium (F-12 HAM, 0.5% bovine serum albumin, 20 mM HEPES, 1 mM sodium pyruvate and 2 mM L-glutamate). […] Fifty microliters/well of luciferase substrate (Luciferase Assay Reagent, E1501, Promega Corp.) was added and the Luciferase activity was detected using a Labsystems LUMINOSKAN at 2 second/well following a one second delay. The average basal (uninduced) signal was subtracted from readings as a percentage of the maximal induction produced by 3 ng/ml bFGF. […]

[2] = test system: template bleeding time; parameters: species or system Macaca fascicularis; settings: cynomolgus monkey, in vivo
Source text: In order to evaluate one aspect of the safety of zsig37 and its effect on template bleeding time, a pre-clinical model in Macaca fascicularis was used. Time to cessation of bleeding from standardized incisions on the animal's forearm, a procedure previously described by Wu, et al., Blood, 2002, 99:3623-3628, was employed to assess the effect of zsig37 on bleeding.
Methods. Five female and twelve male, Macaca fascicularis weighing 2.3 to 4.6 kg were used as test subjects on this project. The animals were immobilized with ketamine hydrochloride (Phoenix Scientific) administered intramuscularly at approximately 10 mg/kg. Each animal was examined, and the animal determined to be acceptable for the study. The right forearm, abdomen, ventral neck and inguinal area were shaved free of hair. The animal was transported to the surgical suite (University of Washington Regional Primate Research Center), positioned inside a heated air circulation system and placed onto isoflurane (Abbott Laboratories) inhalation anesthesia delivered through positive pressure ventilation via an endotracheal tube. […] The time to cessation of bleeding was determined and recorded for each animal. Bleeding times were determined for each animal prior to any treatment, after low molecular weight heparin (Lovenox™, Rhone Polenc, Inc.) treatment and after zsig37 treatment.

[3] = test system: serotonin-contracted rat aortic sections; test: Relaxation of serotonin-induced rat aortic ring contractions; parameters: species or system Sprague-Dawley rats
Protocol: Male, Sprague-Dawley rats, approximately 3 months of age, were lightly anesthetized with CO2 and then decapitated. The thoracic aorta was then rapidly removed and placed in a modified Kreb's-Henseleit buffer (NaCl, 118.2 mM; KCl, 4.6 mM; CaCl2, 2.5 mM; MgSO4, 1.2 mM; NaHCO3, 24.8 mM; KH2PO4, 1.2 mM; and glucose, 10.0 mM). From each rat, four 2-3 mm aortic ring sections were cut after discarding the rough end of the aorta. In some experiments the endothelium was denuded, prior to cutting ring sections, by rubbing the lumen of the aorta along a 21 gauge needle. Denudation of the endothelium was verified by the addition of the acetylcholine analogue, carbachol, prior to determining zsig37 concentration-dependent responses.
The rings were fixed and connected to force displacement transducers in oxygenated (95% O2, 5% CO2), jacketed, glass organ baths kept at 30° C. in modified Kreb's-Henseleit buffer, pH 7.4. Resting tension was set at 1 gm, and continually re-adjusted to 1 gm over a one-hour incubation period. Fresh oxygenated modified Kreb's-Henseleit buffer was added to the baths every fifteen minutes during the resting incubation period. At the end of the one-hour incubation, the ring sections were contracted by the addition of 10 μM serotonin. After maximum contraction had been reached, approximately 15-20 minutes after the addition of the serotonin, cumulative concentration response curves for zsig37 were constructed. Zsig37 was added to 5 ml baths in volumes from 5 up to 150 μls, for final concentrations ranging from 1 ng/ml up to 40 μg/ml. Viability of the ring sections was verified at the end of the concentration response by the addition of forskolin (2.5 μM or 25 μM) or nitroglycerin (22 μM).

B1: zsig37: adipocyte complement related protein homolog, polypeptide of SEQ ID NO:2, inhibits collagen-mediated platelet activation and the complement pathway (protein, listed as Homo sapiens)
chain: MGSRGQGLLLAYCLLLAFASGLVLSRVPHVQGEQQEWEGTEELPSPPDHAERAEEQHEKYRPSQDQGLPASRCLRCCDPGTSMYPATAVPQINITILKGEKGDRGDRGLQGKYGKTGSAGARGHTGPKGQKGSMGAPGERCKSHYAAFSVGRKKPMHSNHYYQTVIFDTEFVNLYDHFNMFTGKFYCYVPGLYFFSLNVHTWNQKETYLHIMKNEEEVVILFAQVGDRSIMQSQSLMLELREQDQVWVRLYKGERENAIFSEELDTYITFSGYLVKHATEP
- luciferase expression as percentage of the maximal induction produced by 3 ng/ml bFGF [1]: 73 to 75%
- template bleeding time vs control (1.0 mg/kg BSA) [2]: not statistically different
- time to plateau of relaxation response after addition [3]: 3 to 5 min
- time to relaxation after addition of each concentration [3]: 30 to 60 s
- concentration at which relaxation was first observed ([3]; 10 μM serotonin): above 100 ng/ml
- vasorelaxation of serotonin-contracted aortic sections ([3]; 10 μM serotonin, with and without an intact endothelium, 1 ng/ml up to 40 μg/ml): concentration-dependent vasorelaxation
